Three molecules from patent CN1934266A (LILLY CO ELI, dated 2007) can be followed below.

Common to all, as to test: ELISA, growth factor coated at 10 μg/ml, antibody at 10 μg/ml, mean of duplicates
Test [1] concerns the target T1, 重组人GDF-11(Peprotech公司，目录号120-11) (human, UniProt O95390 299-407).
T1 sequence (looked up): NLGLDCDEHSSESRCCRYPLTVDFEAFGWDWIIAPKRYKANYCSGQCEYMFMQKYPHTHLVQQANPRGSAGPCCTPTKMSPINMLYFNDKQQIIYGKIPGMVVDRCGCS

Test [2] concerns the target IGF-1 (R&D Systems 291-G1) (UniProt P05019 49-118).
The target in test [3] is BMP-2 (R&D Systems 355-BEC/CF) (UniProt P12643 283-396).
The target of test [4] is T2, BMP-5 (R&D Systems 615-BM) (UniProt P22003 317-454, limits assumed).
T2 sequence (looked up): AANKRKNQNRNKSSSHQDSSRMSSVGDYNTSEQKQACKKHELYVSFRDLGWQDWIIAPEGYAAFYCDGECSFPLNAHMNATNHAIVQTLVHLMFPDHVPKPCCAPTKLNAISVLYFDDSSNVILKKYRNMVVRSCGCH

Test [5] addresses T3, BMP-6 (R&D Systems 507-BP) (UniProt P22004 382-513, limits assumed).
T3 sequence (looked up): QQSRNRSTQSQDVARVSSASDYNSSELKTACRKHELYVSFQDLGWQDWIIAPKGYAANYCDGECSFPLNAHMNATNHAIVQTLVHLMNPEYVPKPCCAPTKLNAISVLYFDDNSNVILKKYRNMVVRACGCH

The target in test [6] is T4, BMP-7 (R&D Systems 354-BP) (UniProt P18075 293-431).
T4 sequence (looked up): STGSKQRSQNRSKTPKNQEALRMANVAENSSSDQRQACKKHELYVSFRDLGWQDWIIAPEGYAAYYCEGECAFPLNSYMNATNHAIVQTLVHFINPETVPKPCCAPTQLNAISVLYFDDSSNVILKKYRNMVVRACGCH

Test [7] has as its target T5, 激活蛋白A (R&D Systems 338-AC) (UniProt P08476 311-426).
T5 construct: also called activin A
T5 sequence (looked up): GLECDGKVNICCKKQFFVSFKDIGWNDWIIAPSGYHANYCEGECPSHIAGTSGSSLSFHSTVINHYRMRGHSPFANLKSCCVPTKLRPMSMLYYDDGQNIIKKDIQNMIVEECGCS

Test [8] deals with T6, 激活蛋白B (R&D Systems 659-AB) (UniProt P09529 293-407).
T6 construct: also called activin B
T6 sequence (looked up): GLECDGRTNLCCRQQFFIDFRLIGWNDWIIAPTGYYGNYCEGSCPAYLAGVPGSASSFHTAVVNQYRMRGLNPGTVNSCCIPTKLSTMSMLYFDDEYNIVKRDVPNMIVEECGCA

The target in test [9] is T7, TGF-a (R&D Systems 239-A) (UniProt P01135 40-89).
T7 construct: also called TGF-α

Test [10] has as its target T8, TGF-b1 (Peprotech 100-21R) (UniProt P01137 279-390).
T8 construct: also called TGF-β1

Test [11] concerns the target T9, TGF-b2 (Peprotech 100-35) (UniProt P61812 303-414).
T9 construct: also called TGF-β2
T9 sequence (looked up): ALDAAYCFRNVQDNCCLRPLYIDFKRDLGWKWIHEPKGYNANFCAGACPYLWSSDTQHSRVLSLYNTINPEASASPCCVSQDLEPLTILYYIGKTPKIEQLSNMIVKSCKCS

Sequence of IGF-1 (R&D Systems 291-G1) (P05019 49-118 limits assumed): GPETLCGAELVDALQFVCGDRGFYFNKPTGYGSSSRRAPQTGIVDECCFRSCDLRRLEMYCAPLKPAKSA
T8 sequence (P01137 279-390 limits assumed): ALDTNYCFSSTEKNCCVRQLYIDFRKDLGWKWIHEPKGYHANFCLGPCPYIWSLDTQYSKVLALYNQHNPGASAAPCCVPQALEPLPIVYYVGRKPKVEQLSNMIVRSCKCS
T7 sequence (P01135 40-89 limits assumed): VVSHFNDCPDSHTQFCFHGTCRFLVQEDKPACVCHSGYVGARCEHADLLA
Sequence of BMP-2 (R&D Systems 355-BEC/CF) (P12643 283-396 limits assumed): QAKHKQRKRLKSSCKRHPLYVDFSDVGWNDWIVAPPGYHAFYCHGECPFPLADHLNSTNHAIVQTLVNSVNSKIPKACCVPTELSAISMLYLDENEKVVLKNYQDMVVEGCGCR

B1: 抗肌肉生长抑素Fab 3 (Fab, V domains shown)
VH: QVTLKESGPGILQSSQTLSLTCSLSGFSLRTSGMSVSWIRQSSGKGLEWLAHIYWDDDKRYNPSLRNRLTISKDTLRNQVFLKITSVGTADTATYYCARRAITTVIGGGTMDYWGQGTSVTVSS
VL: QIVLTQSPAIMSASPGEKVTMTCSASSSISYMHWYQQKPGTSPKRWIYDTSKLASGVPARFSGSGSGTSYSLTISSMEAEDAATYYCQQWYSNPLTFGAGTKLELKR
In the case of B1, the “平均吸光度 (OD 490 nm)” value stood at 0.0705 OD 490 nm in [1]; 0.034 OD 490 nm in [2]; 0.0345 OD 490 nm in [3]; 0.034 OD 490 nm in test [4]; 0.0335 OD 490 nm in test [5]; 0.033 OD 490 nm in test [6]. The “平均吸光度 (OD 490 nm)” value in [7] turned out to be 0.033 OD 490 nm; in test [8], 0.032 OD 490 nm; in test [9], 0.033 OD 490 nm; in test [10], 0.034 OD 490 nm; in test [11] it was 0.034 OD 490 nm.

B2: 抗肌肉生长抑素Fab 5 (Fab, V domains shown)
VH: QVTLKESGPGILQSSQTLSLTCSFSGFSLSTSGMSVSWIRQSSGKGLEWLAHIYWDDDKRYNPSLRSRLTISKDTSRNQVFLKITSVDTADTATYYCARRGITTVLGGGTMDYWGQGTSVTVSS
VL: QVVLTQSPAIMSASLGEKVTMTCSASSSVHYMHWYQQKSGTSPKRWIYDTSKLASGVPARFSGSGSGTSYSLTISSMEAEDAATYYCQQWSSNPLTFGAGTKLELKR
B2: the “平均吸光度 (OD 490 nm)” value in test [1] came out at 0.034 OD 490 nm; in test [2] it was 0.035 OD 490 nm; in test [3], 0.032 OD 490 nm; in test [4], 0.033 OD 490 nm; in test [5], 0.0325 OD 490 nm; in test [6], 0.032 OD 490 nm. Further, the “平均吸光度 (OD 490 nm)” value in test [7] is 0.033 OD 490 nm; in test [8], 0.033 OD 490 nm; in test [9], 0.033 OD 490 nm; in test [10], 0.0325 OD 490 nm; in test [11] it was 0.034 OD 490 nm.

B3: 抗肌肉生长抑素Fab 7 (Fab, V domains shown)
VH: QVTLKSGPGILQSSQTLTLTCSLSGFSLTTSGMIVSWIRQSSGRGLEWLAHIYWDDDKRYNPSLRNRLTISKDTLRNQVFLWISSVGTADTATYYCARRAITTVIGGGTMDYWGQGTSVTVSS
VL: QIVLTQSPAIMSASPGEKVTMTCSASSSISYMHWYQQKPGTSPKRWIYDTSKLASGVPARFSGSGSGTSYSLTISSMEAEDAATYYCQQWYSNPLTFGAGTKLELKR
Consider B3, for which the “平均吸光度 (OD 490 nm)” value is 0.04 OD 490 nm in [1]; 0.034 OD 490 nm in test [2]; 0.0335 OD 490 nm in test [3]; 0.0345 OD 490 nm in test [4]; 0.035 OD 490 nm in test [5]; 0.031 OD 490 nm in test [6]. In addition, the “平均吸光度 (OD 490 nm)” value came to 0.0325 OD 490 nm in test [7]; 0.031 OD 490 nm in test [8]; 0.0315 OD 490 nm in test [9]; 0.032 OD 490 nm in [10]; 0.0345 OD 490 nm in test [11].
